Experimental data reported in US20100272753A1.

Target: native circumsporozoite protein (CSP) on intact P. falciparum sporozoites (Plasmodium falciparum) (UniProt Q7K740)
Test: indirect immunofluorescence on intact P. falciparum sporozoites

Sequence of UniProt Q7K740 (Q7K740 19-374): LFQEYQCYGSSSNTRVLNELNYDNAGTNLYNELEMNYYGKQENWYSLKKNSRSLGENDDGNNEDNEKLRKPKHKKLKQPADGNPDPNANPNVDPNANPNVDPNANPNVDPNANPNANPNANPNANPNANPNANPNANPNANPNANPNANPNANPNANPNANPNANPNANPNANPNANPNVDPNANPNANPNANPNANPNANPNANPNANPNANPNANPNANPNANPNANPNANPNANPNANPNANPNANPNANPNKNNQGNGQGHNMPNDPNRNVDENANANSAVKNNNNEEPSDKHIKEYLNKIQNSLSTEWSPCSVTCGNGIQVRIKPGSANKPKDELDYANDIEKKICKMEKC

anti-P. falciparum NANP monoclonal antibody 2A10
dilution positive in immunofluorescence (reciprocal dilution): 16000
